From PMC2119998

How the values were obtained:
Assay in all cases: radioligand binding
[1] = target: Ng-CAM and N-CAM (physiological salt)
laminin = target: laminin
[2] = target: Ng-CAM (chicken) (chicken) (UniProt Q03696)
Ng-CAM (chicken) (chicken), sequence (Q03696 21-1266): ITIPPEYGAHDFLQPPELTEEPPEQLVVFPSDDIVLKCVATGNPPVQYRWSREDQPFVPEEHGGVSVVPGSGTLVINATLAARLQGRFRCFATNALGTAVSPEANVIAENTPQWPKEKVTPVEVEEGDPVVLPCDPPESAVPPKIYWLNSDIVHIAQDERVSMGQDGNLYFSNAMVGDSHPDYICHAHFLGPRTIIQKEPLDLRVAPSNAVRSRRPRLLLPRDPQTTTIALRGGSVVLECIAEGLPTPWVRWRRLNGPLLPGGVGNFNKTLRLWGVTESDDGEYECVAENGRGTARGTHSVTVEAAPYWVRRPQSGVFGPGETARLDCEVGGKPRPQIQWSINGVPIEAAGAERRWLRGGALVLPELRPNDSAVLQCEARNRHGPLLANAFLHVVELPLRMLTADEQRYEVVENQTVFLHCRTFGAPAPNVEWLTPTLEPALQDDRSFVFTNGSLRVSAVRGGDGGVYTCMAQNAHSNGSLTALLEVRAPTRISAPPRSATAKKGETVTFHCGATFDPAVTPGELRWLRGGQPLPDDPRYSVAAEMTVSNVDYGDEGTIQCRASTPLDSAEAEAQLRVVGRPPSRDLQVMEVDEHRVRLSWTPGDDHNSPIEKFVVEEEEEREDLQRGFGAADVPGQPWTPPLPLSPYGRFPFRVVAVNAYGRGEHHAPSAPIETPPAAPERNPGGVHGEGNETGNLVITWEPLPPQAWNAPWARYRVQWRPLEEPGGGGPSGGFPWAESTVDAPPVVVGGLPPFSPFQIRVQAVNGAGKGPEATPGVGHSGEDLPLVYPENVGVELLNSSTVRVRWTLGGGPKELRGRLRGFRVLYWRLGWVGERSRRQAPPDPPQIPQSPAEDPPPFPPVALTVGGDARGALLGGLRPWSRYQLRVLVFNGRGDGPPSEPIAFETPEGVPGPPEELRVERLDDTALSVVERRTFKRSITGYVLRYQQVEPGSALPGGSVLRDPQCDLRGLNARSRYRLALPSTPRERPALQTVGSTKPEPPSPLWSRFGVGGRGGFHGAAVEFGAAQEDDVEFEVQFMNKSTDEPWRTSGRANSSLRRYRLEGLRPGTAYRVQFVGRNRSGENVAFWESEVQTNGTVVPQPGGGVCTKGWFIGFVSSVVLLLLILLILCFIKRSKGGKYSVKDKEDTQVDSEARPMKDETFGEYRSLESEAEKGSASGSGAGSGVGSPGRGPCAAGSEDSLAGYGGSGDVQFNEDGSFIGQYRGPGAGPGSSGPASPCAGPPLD

neurocan, sequence (P55067 23-1257): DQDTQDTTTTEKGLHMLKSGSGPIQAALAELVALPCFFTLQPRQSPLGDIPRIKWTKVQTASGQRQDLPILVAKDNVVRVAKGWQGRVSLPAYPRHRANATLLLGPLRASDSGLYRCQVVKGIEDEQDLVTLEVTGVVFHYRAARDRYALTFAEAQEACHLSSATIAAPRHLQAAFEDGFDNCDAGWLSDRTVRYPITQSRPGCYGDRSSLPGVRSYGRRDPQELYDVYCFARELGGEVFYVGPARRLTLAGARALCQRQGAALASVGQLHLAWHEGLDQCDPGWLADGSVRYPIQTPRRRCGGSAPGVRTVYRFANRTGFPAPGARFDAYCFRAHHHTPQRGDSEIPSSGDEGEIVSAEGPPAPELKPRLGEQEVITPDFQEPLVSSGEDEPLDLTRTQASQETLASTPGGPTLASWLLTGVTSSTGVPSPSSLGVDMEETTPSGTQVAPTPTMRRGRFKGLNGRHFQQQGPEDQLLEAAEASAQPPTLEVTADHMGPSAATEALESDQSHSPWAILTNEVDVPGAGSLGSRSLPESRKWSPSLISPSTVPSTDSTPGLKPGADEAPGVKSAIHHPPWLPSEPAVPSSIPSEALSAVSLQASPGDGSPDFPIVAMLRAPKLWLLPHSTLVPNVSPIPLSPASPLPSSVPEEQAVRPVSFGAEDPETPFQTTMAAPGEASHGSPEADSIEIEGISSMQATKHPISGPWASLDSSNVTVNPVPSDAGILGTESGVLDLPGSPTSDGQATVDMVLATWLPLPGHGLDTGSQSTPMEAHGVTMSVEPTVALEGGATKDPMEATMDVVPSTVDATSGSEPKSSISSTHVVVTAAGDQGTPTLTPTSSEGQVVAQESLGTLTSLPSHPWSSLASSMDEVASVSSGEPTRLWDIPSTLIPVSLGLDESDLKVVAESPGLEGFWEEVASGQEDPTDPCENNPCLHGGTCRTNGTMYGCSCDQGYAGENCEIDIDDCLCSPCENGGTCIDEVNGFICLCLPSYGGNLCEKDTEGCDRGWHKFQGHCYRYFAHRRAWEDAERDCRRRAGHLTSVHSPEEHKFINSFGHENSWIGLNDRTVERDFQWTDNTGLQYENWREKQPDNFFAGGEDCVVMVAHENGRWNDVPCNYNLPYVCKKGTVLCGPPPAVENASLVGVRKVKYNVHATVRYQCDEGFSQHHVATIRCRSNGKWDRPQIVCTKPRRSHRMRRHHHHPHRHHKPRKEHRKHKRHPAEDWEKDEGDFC

Substance “neurocan (from UniProt P55067 23-1257) (natural protein)” has a percent decrease of binding in isotonic against hypotonic buffer [1] of 35 to 60% and a percent of total counts bound (laminin) of 9%.

neurocan-C (domain or fragment) was tested, and the Kd [2] was 5.3 nM and the t1/2 of dissociation in excess buffer [2] was 4 h.
